# Article PMC8818087 (Nature cancer, 2021)
# T1: TC-SND1 (16-339aa) (UniProt Q7KZF4 16-339, FlAsH-EDT2 labelling reagent on the tetracysteine tag)
# T1 sequence: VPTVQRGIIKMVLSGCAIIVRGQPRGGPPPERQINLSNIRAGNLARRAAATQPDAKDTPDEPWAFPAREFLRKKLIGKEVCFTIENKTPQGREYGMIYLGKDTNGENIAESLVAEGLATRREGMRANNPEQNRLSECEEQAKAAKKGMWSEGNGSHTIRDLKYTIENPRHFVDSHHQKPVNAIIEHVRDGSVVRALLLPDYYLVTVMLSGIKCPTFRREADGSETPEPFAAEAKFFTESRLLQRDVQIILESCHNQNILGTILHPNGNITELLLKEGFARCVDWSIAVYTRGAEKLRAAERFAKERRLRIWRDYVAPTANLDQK
# T2: purified SND1 (16-339aa) protein (UniProt Q7KZF4 16-339)
# T2 sequence: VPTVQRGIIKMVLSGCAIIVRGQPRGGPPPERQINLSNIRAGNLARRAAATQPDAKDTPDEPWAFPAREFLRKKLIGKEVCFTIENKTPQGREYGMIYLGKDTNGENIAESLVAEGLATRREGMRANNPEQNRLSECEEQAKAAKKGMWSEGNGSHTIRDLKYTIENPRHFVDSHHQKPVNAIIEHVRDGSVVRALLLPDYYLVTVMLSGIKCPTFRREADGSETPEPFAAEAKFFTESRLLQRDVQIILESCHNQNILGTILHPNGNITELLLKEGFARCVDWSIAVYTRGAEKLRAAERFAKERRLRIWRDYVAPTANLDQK
# What was measured:
# [1] = biological target: T1, TC-SND1 (16-339aa); assay: FRET or BRET
# [2] = biological target: T2, purified SND1 (16-339aa) protein; assay: MST
Binder,binding result [1],binding result [2]
SSADPNSDWNAPAEEWGNWVDE (domain or fragment) [CFP-MTDH (386-407aa)],binds,–
PNSDWNAPAEEWGNW [wild type MTDH (MTDH-WT) minimal peptide],binds,binds
